Article PMC2559947
Values joined by “and” are separate entries in the source; they are usually repeats but may differ in a detail not shown here. Identical values can stand only once.

Columns and labels:
[1] = target: C326A pea porphobilinogen synthase (pea (Pisum sativum)); assay: AUC
[2] = target: C326A pea porphobilinogen synthase (pea (Pisum sativum)); assay: AUC; remark: listed apart in the source
[3] = target: C326A pea porphobilinogen synthase (pea (Pisum sativum)); assay: AUC; remark: listed apart in the source
[4] = target: C326A pea porphobilinogen synthase (pea (Pisum sativum)); assay: native gel or EMSA

stoichiometry N [1]: 8
stoichiometry N [2]: 8 and 6
stoichiometry N [3]: 6 and 8
stoichiometry N [4]: 8
Substance: C326A pea porphobilinogen synthase (enzyme)
